Laboratory results published in patent publication US12460006B2, “Antibodies against integrin alpha 11 beta 1” (Momenta Pharmaceuticals, Inc., priority 2019, dated 2025).
Entries after “also recorded” stand apart in the source; their conditions may differ.

T1: I domain of α11β1 (Homo sapiens, UniProt Q9UKX5)
T1 construct: An in-house generated I domain of α11β1 was used; made in house
T1 sequence (Q9UKX5 164-345 limits assumed): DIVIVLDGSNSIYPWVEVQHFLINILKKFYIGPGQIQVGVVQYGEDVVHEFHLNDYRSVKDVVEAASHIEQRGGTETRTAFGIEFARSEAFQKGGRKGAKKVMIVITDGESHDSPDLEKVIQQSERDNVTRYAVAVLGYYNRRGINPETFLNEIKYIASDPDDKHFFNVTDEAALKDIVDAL

B1: 9-E16: mouse anti-α11β1 mAb; VH SEQ ID NO: 111, VL SEQ ID NO: 112 (antibody, V domains shown)
VH: EVQLQQSGPELVKPGASVKISCKASGYTFTDYYMHWVKQKPGQGLEWIGEIYPGSGNPYYNEKFKGKATLTADKSSSSAYMQLSSLTSEDSAVYFCARTSYGRVGTGFAYWGQGTLVTVSA
VL: NFVMTQTPLSLPVSLGDQASISCRSSQSLLHSNGNTYLHWYLQKPGQSPKLLIYKVSNRFSGVPDRFSGSGSGTDFTLKINRVETEDLGIYFCSQSSHVPTFGAGTKLELK
B2: 16E10: rabbit anti-α11β1 mAb; heavy chain SEQ ID NO: 161, light chain SEQ ID NO: 162 (antibody)
heavy: METGLRWLLLVAVLKGVQCQSLEESGGDLVKPGASLTLTCRVSGFSFSSSYYMCWVRQAPGKGLEWIACIGTTRGSTYYATWAKGRFTISKISSTTVTLQMTSLTDADTATYFCARDATGYRINTIGLYFNLWGPGTLVTVSSGQPKAPSVFPLAPCCGDTPSSTVTLGCLVKGYLPEPVTVTWNSGTLTNGVRTFPSVRQSSGLYSLSSVVSVTSSSQPVTCNVAHPATNTKVDKTVAPSTCSKPMCPPPELPGGPSVFIFPPKPKDTLMISRTPEVTCVVVDVSQDDPEVQFTWYINNEQVRTARPPLREQQFNSTIRVVSTLPIAHQDWLRGKEFKCKVHNKALPAPIEKTISKARGQPLEPKVYTMGPPREELSSRSVSLTCMINGFYPSDISVEWEKNGKAEDNYKTTPTVLDSDGSYFLYSKLSVPTSEWQRGDVFTCSVMHEALHNHYTQKSISRSPGK
light: MDTRAPTQLLGLLLLWLPGARCAFELTQTPSSVEAAVGGTPTIKCQASQTIYSYLSWYQQKPGQPPKLLIYEASKLASGVPSRFSGSGSGTDYTLTISDLECADAATYYCQSYHGTASTEYNTFGGGTEVVVRGDPVAPTVLIFPPAADQVATGTVTIVCVANKYFPDVTVTWEVDGTTQTTGIENSKTPQNSADCTYNLSSTLTLTSTQYNSHKEYTCKVTQGTTSVVQSFNRGDC
B3: 9-G05: mouse anti-α11β1 mAb; VH SEQ ID NO: 103, VL SEQ ID NO: 104 (antibody, V domains shown)
VH: EVQLQQSGPELVKPGASVKIPCKASGYTFPDYNMDWVKQSHGKSLEWIGYINPDNGGTIYNQKFKGKATLTVDKSSSTAYMELRSLTSEDTAVYYCARLDSSGYGYYAMDYWGQGTSVTVSS
VL: DIVLTQSPASLAVSLGQRATISCRASESVDNYGISFMHWYQQKPGQPPKLLIYRASNLDSEIPARFSGSGSRTDFTLTIDPVETDDVATYYCQQSYKDPRTFGGGTKLEIK
B4: 8-J17: mouse anti-α11β1 mAb; VH SEQ ID NO: 113, VL SEQ ID NO: 114 (antibody, V domains shown)
VH: QVQLQQSGAELAKPGASVKMSCKASGYTFTNYWMHWVKQRPGQGLEWIGYINPNNGYTEYNQRFKDKATLTADRSSTTAYMQLSSLTSEDSAVYYCARSDIITTDYWGQGTTLTVSS
VL: DVVMTQTPLSLPVSLGDQASISCRSSQSLVYSNGNTYLHWYLQKPGQSPKLLIYKVSNRFSGVPDRFSGSGSGTDFTLKISRVEAEDLGVYFCSQSTHVPWTFGGGTKLEIK
B5: 8-I14: mouse anti-α11β1 mAb; VH SEQ ID NO: 109, VL SEQ ID NO: 110 (antibody, V domains shown)
VH: EVQLQQSGPELVKPGASVKKSCKASGYTFTDYYMHWVKQKPGQGLEWIGKIYPGSGNTHYNEKFKGKATLTADKSSSTAYMQLSSLTSEDSAVYFCATNYYGYRAMNYWGQGSSVTVSS
VL: DIHLTQSPSSLSASLGERISLTCRASQDIYISLNWFQQKPDGTIKLLIYGTSSLDSGVPKRFSGSRSGSDYSLTISSLESEDFADYYCLQYASSPYTFGGGTKLEIK

The molecules below were run on CHO-K1 cells expressing human α11 (assay: Cell adhesion inhibition (xCelligence), type I collagen). Conditions: CHO-K1 hu α11 cells.
Assay type: cell-based
Description: 0.6×10^6 cells/mL were incubated with each antibody at a range of concentrations for 20 minutes at 37° C. E-Plate VIEW 96 PET plate coated with 100 ng/mL type I collagen or PBS overnight at room temperature was blocked in 3% BSA for 1 house at room temperature. After washing the plate with PBS, cell and antibody mixture was added to the wells and the plate was places into an xCelligence machine. Cell adhesion was recorded over 6 hours. The time point of maximum cell adhesion was used for comparison relative to control.
A CHO-K1 hu α11 cell line was used to assess the ability of mAbs to block α11β1-mediated binding to type I collagen. […] In the “Untreated” condition, cells were plated on type I collagen but no antibody was added and in the “Uncoated” condition, cells were seeded onto BSA-coated wells containing no type I collagen. Statistics were performed using one-way ANOVA followed by Dunnett's multiple comparisons test. […] Therefore, it is possible that these mAbs bind on an α11β1 domain that keeps the integrin in a low or intermediate affinity state. […] Nine human mAbs were also tested for their ability to inhibit the binding of human CHO-α11 cells to type I collagen.

| Molecule | inhibition of cell adhesion to type I collagen |
| --- | --- |
| B1 | significantly blocked cell adhesion; also recorded: decrease cell adhesion |
| B2 | inhibit both ligand binding and FMT |
| B3 | significantly blocked cell adhesion; also recorded: decrease cell adhesion |
| B4 | did not block cell adhesion; also recorded: had effect on ligand binding |

Same assay, conditions: Yes/No

| Molecule | Inhibition of CHO-K1 adhesion to collagen |
| --- | --- |
| B1 | Yes |
| B2 | Yes |
| B3 | Yes |
| B5 | No |
| B4 | No |

What follows are molecules tested on human pulmonary fibroblasts (HPFs) (assay: FACS antibody binding to human pulmonary fibroblasts). Conditions: FACS.
Description: (§1) Human Pulmonary Fibroblasts (ScienCell) were cultured in complete Fibroblast Growth Medium (ScienCell) until 80% confluent in T-150 flasks. Cells were washed and harvested using Accutase. Cells were seeded into T-150 flasks at 7,500 cells/cm^2 in complete FGF and cultured for 72 hours. Cells were then washed and starved in serum reduced medium for 24 hours. After starvation, cells were treated with TGFβ-1 (R&D Systems) for 72 hours. Cells were harvested using Accutase and seeded in 96-well conical bottom plates. Cells were blocked with Heat Inactived Fetal Bovine Serum (Gibco) for 30 minutes at 4° C. Cells were then incubated with anti-α11 antibodies at the doses described in each figure for 30 minutes at 4° C. A human anti-α11 antibody (Creative BioLabs) was included as a positive control as well as the appropriate IgG isotype negative controls. Cells were washed twice and incubated with PE conjugated secondary antibodies specific to the IgG class of the anti-α11 antibodies being tested for 30 minutes at 4° C. Cells were washed twice and fixed in 1% PFA for 30 minutes. Cells were acquired on a FACS Verse […]. Data were analyzed by gating on single cells and determining the geometric Mean Fluorescence Intensity (gMFI) in the PE channel for each sample.
(§2) Binding to a physiologically relevant primary human cell type was also tested. Human pulmonary fibroblasts (HPF) and TGFβ treatment were used to induce a fibroblast-to-myofibroblast transition (FMT), giving rise to myofibroblasts (MF). […] Additionally, HPFs express α11 and α2β1, other collagen binding receptors, which means that HPFs can be to test cross-reactivity of antibodies of interest.

| binding to HPFs | Molecule |
| --- | --- |
| some HPF binding | B1 |

Same assay, conditions: binding Yes/No

| HPF FACS | Molecule |
| --- | --- |
| Low | B1 |
| No | B2 |
| No | B3 |
| No | B5 |
| No | B4 |

These molecules were tested on Human Pulmonary Fibroblasts (assay: Fibroblast-to-Myofibroblasts Transition (FMT), αSMA expression). Conditions: TGFβ-induced FMT.
Assay type: cell-based
Description: Human Pulmonary Fibroblasts (ScienCell) were cultured in complete Fibroblast Growth Medium (ScienCell) until 80% confluent. Cells were washed and harvested using Accutase. Cells were seeded onto tissue culture-treated 96 well plates at 20,000 cells/well in complete Fibroblast Growth Medium. After 24 hours, cells were washed and starved in serum reduced medium for an additional 24 hours. After starvation, cells were treated with TGFβ-1 (R&D Systems) with or without anti-α11 antibodies. A polyclonal rabbit anti-human α11 antibody was used as a positive control. Appropriate IgG isotype controls were also included. After 48 hours, cells were harvested, fixed, permeabilized and stained with AlexaFluor488 Labeled Anti-αSMA (α-smooth muscle actin) (Invitrogen). Cells were acquired on a FACS Verse (Benton Dickson) to determine expression levels of αSMA. Data were analyzed by gating on single cells and determining the geometric Mean Fluorescence Intensity (gMFI) in the FITC channel for each sample. gMFI for each sample was normalized to the untreated control and presented as % inhibition.
In addition to the binding abilities described above, it is important for an anti-α11β1 antibody to inhibit the fibroblast-to-myofibroblast transition (FMT). It is now appreciated that myofibroblasts are a heterogeneous cell population, existing in different activation states, with the main function of producing and contracting collagen extracellular matrix (ECM). FMT is a multi-step event that is controlled by a changing mechanical environment in tissues undergoing repair. TGFβ is one of the potent factors that potentiates this process and alpha smooth muscle actin (αSMA) is one of the main markers that becomes overexpressed when fibroblasts are undergoing the transition to becoming myofibroblasts. The presence of αSMA enhances fibroblast contraction and guides myofibroblast activation through an intracellular feedback loop. Because αSMA is the main molecular marker of myofibroblasts, the ability of the novel anti-α11β1 mAbs to inhibit αSMA expression in TGFβ-induced FMT was tested.

| Molecule | inhibition of αSMA expression / FMT |
| --- | --- |
| B1 | FMT inhibitors |
| B2 | inhibit both ligand binding and FMT |
| B3 | FMT inhibitors |
| B5 | only inhibited FMT |
| B4 | only inhibited FMT |

Same assay, conditions: Yes/No

| Molecule | Inhibition of FMT |
| --- | --- |
| B1 | Yes |
| B2 | Yes |
| B3 | Yes |
| B5 | Yes |
| B4 | Yes |

What follows are molecules tested against human α11β1 (Homo sapiens, UniProt Q9UKX5) (assay: ELISA binding to recombinant human α11β1). Conditions: binding Yes/No.
human α11β1, sequence (Q9UKX5 23-1141 limits assumed): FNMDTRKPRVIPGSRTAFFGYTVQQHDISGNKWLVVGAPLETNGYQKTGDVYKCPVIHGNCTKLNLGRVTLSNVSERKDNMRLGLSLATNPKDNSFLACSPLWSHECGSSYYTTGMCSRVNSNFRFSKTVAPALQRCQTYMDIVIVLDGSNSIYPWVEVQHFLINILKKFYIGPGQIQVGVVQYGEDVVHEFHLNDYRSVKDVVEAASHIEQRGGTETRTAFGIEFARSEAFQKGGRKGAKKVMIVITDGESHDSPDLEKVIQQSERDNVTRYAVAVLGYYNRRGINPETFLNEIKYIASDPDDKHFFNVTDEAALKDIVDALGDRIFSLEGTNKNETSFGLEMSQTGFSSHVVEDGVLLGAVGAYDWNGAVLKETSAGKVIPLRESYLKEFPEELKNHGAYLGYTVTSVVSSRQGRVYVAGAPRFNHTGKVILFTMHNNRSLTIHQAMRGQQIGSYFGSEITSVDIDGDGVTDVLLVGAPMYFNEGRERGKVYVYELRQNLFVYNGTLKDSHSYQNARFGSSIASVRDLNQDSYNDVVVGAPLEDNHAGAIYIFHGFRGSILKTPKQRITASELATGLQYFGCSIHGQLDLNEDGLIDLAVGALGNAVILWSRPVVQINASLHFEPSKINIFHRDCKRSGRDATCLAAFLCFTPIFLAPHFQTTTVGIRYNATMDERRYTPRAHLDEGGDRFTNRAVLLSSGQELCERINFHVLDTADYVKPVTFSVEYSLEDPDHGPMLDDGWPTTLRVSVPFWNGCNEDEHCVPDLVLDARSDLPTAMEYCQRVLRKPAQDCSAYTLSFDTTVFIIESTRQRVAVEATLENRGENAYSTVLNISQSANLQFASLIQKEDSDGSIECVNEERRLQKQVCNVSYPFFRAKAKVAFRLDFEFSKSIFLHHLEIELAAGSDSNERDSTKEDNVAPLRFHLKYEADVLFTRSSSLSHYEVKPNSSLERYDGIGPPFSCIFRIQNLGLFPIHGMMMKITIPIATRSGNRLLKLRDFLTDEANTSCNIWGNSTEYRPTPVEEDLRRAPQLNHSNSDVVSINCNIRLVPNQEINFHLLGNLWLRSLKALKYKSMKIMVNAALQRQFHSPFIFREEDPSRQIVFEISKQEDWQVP
human α11β1, sequence (P05556 21-728 partner limits assumed): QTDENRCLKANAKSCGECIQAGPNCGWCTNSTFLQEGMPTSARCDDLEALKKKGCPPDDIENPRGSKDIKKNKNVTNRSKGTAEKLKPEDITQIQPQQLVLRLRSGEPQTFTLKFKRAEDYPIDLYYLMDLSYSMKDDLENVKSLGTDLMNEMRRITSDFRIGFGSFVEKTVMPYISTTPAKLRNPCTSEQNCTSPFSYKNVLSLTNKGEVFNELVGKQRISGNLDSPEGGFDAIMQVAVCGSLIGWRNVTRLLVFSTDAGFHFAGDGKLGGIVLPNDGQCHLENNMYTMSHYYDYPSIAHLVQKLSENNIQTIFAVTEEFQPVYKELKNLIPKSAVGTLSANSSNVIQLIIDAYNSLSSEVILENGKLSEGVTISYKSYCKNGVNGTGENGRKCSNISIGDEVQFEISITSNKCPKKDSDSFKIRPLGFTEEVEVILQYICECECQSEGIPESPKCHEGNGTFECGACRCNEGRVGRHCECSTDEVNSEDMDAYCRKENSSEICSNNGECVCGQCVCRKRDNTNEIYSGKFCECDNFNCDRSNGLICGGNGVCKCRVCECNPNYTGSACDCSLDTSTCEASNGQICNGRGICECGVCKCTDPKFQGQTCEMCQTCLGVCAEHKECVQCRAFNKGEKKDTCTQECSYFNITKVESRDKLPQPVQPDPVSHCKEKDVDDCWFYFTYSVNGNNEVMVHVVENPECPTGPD
Description: (§3) 0.25 μg/mL of target antigen (recombinant human or mouse α11β1) was plated in a 96-well plate over night at 4° C. Plates were washed (PBS with 0.1% Tween-20), blocked (PBS with 2% BSA and 0.05% Tween-20) for 1 hour at room temperature and incubated with a range of antibody concentrations for 1 hour at room temperature. Subsequently, plates were washed and incubated with biotinylated anti-rabbit/mouse/human IgG in a 1:1000 dilution buffer and incubated for 1 hour at room temperature. After washing the plates, Streptavidin HRP was added at 1:200 in dilution buffer and incubated for 1 hour at room temperature. Ultra TMB ELISA substrate solution was added and the plates incubated for 5 minutes on a plate shaker. The reaction was stopped by adding stop solution to each well and plates were read at 450 nm.

| Human α11β1 ELISA | Molecule |
| --- | --- |
| Yes | B1 |
| Yes | B2 |
| Yes | B3 |
| Yes | B5 |
| Yes | B4 |

These molecules were tested against T1, I domain of α11β1 (assay: ELISA binding to in-house generated I domain of α11β1). Conditions: not given.
Description: as §3
22 Data was also collected to determine whether antibodies of interest bind to the I domain of α11β1. An in-house generated I domain of α11β1 was used. […] Mouse antibodies 10-F23, 10-L15, 7-O8, 6-A12, 9-G05 and 9-E16 and rabbit antibodies 7-H12 and 2-D3 were also tested for binding against the in-house generated α11031 domain. FIGS. 3A and 3B show graphs illustrating binding data from exemplary mAbs.

| Molecule | I-domain binder |
| --- | --- |
| B1 | I domain binders; also recorded: I-domain binders; also recorded: bound the I domain |
| B3 | I domain binders; also recorded: I-domain binders; also recorded: bound the I domain |

Same assay, conditions: Yes/No

| I Domain binding | Molecule |
| --- | --- |
| Yes | B1 |
| No | B2 |
| Yes | B3 |
| No | B5 |
| No | B4 |

Each molecule was assayed on myofibroblasts (MF) (assay: FACS antibody binding to myofibroblasts). Conditions: binding Yes/No.
Parameters: species or system human
Description: as §1, §2

| MF FACS | Molecule |
| --- | --- |
| Yes | B1 |
| Yes | B2 |
| Yes | B3 |
| Yes | B5 |
| Yes | B4 |
